T1: FcγRIIa(R) extracellular domain, C-terminal His tag (human, UniProt P12318 34-217)
T1 construct: extracellular domain; Allotype R131; also called 2aR
T1 sequence: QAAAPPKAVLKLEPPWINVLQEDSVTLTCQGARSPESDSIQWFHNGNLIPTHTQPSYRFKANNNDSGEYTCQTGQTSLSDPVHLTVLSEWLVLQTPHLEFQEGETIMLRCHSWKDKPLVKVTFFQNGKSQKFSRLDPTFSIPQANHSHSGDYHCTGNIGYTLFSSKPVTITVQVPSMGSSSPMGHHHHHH

T2: FcγRIIa(H) extracellular domain, C-terminal His tag (human, UniProt P12318 34-217)
T2 construct: extracellular domain; Allotype H131; also called 2aH
T2 sequence: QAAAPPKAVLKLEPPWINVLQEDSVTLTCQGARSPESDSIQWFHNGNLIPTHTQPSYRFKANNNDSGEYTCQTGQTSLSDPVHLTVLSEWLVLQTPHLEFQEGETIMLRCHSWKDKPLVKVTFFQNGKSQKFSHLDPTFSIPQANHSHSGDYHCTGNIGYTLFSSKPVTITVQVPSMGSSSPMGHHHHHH

T3: FcγRIIb extracellular domain, C-terminal His tag (human, UniProt P31994 43-217)
T3 construct: extracellular domain; also called 2b
T3 sequence: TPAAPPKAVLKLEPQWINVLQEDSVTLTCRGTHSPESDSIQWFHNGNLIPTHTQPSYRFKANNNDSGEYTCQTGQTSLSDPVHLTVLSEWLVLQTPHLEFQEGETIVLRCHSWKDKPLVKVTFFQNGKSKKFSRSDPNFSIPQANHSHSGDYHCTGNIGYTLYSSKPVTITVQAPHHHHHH


How the values were obtained:
Test in all cases: SPR (Biacore); binding relative to GpH7-A5/GpH7-B3/GpL16-k0 x100;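 further: antibodies captured on a chip surface, soluble FcγR flowed over in HBS-EP+ running buffer at 25 °C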
[1] = biological target: T1, FcγRIIa(R) extracellular domain, …
[2] = biological target: T4, FcγRIIIa extracellular domain, C-terminal His tag (human, UniProt P08637 17-208)
T4 construct: extracellular domain; also called 3a

[3] = biological target: T2, FcγRIIa(H) extracellular domain, …
[4] = biological target: T5, FcγRIa extracellular domain, C-terminal His tag (human, UniProt P12314 16-292)
T5 construct: extracellular domain; also called 1a

[5] = biological target: T3, FcγRIIb extracellular domain, …

T5 sequence (P12314 other isoform, or with tags, fused parts or gaps): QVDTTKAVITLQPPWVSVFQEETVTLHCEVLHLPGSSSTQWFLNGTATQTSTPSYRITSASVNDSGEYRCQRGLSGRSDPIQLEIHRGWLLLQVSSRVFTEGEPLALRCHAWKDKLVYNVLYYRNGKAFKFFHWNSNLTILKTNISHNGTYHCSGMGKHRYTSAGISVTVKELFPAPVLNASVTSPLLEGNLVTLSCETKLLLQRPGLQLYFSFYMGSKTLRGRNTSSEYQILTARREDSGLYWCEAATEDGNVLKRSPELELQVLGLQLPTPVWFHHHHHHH
T4 sequence (P08637 other isoform, or with tags, fused parts or gaps): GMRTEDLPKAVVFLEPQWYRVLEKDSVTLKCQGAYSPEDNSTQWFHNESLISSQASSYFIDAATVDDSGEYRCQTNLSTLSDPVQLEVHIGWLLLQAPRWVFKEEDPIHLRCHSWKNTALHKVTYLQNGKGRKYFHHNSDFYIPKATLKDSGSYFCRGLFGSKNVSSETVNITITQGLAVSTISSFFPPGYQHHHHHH

He/Con 2aR [1] | He/Con 3a [2] | He/Con 2aH [3] | He/Con 1a [4] | He/Con 2b [5] | Binder
118% | 76.2% | 110% | 91.4% | 98.2% | GpH7-A5/GpH7-B3 variant E333_18N/GpL16-k0 (antibody, human IgG1, kappa, He Ab: anti-glypican 3 IgG1 heterodimer, only the GpH7-B3 chain mutated; position in EU numbering; also called He Ab) heavy 1: not shown heavy 2: not shown light: DIVMTQSPLSLPVTPGEPASISCQASESLVHSNRNTYLHWYLQKPGQSPQLLIYKVSNRFSGVPDRFSGSGSGTDFTLKISRVEAEDVGVYYCSQNTHVPPTFGQGTKVEIERTVAAPSVFIFPPSDEQLKSGTASVVCLLNNFYPREAKVQWKVDNALQSGNSQESVTEQDSKDSTYSLSSTLTLSKADYEKHKVYACEVTHQGLSSPVTKSFNRGEC
129% | 114% | 101% | 107% | 174% | GpH7-A5/GpH7-B3 variant K326_04F/GpL16-k0 (antibody, human IgG1, kappa, He Ab: anti-glypican 3 IgG1 heterodimer, only the GpH7-B3 chain mutated; position in EU numbering; also called He Ab) heavy 1: not shown heavy 2: not shown light: DIVMTQSPLSLPVTPGEPASISCQASESLVHSNRNTYLHWYLQKPGQSPQLLIYKVSNRFSGVPDRFSGSGSGTDFTLKISRVEAEDVGVYYCSQNTHVPPTFGQGTKVEIERTVAAPSVFIFPPSDEQLKSGTASVVCLLNNFYPREAKVQWKVDNALQSGNSQESVTEQDSKDSTYSLSSTLTLSKADYEKHKVYACEVTHQGLSSPVTKSFNRGEC
96.9% | 103% | 115% | 100% | 114% | GpH7-A5/GpH7-B3 variant I332_02A/GpL16-k0 (antibody, human IgG1, kappa, He Ab: anti-glypican 3 IgG1 heterodimer, only the GpH7-B3 chain mutated; position in EU numbering; also called He Ab) heavy 1: not shown heavy 2: not shown light: DIVMTQSPLSLPVTPGEPASISCQASESLVHSNRNTYLHWYLQKPGQSPQLLIYKVSNRFSGVPDRFSGSGSGTDFTLKISRVEAEDVGVYYCSQNTHVPPTFGQGTKVEIERTVAAPSVFIFPPSDEQLKSGTASVVCLLNNFYPREAKVQWKVDNALQSGNSQESVTEQDSKDSTYSLSSTLTLSKADYEKHKVYACEVTHQGLSSPVTKSFNRGEC
104% | 89.3% | 108% | 106% | 115% | GpH7-A5/GpH7-B3 variant I332_04F/GpL16-k0 (antibody, human IgG1, kappa, He Ab: anti-glypican 3 IgG1 heterodimer, only the GpH7-B3 chain mutated; position in EU numbering; also called He Ab) heavy 1: not shown heavy 2: not shown light: DIVMTQSPLSLPVTPGEPASISCQASESLVHSNRNTYLHWYLQKPGQSPQLLIYKVSNRFSGVPDRFSGSGSGTDFTLKISRVEAEDVGVYYCSQNTHVPPTFGQGTKVEIERTVAAPSVFIFPPSDEQLKSGTASVVCLLNNFYPREAKVQWKVDNALQSGNSQESVTEQDSKDSTYSLSSTLTLSKADYEKHKVYACEVTHQGLSSPVTKSFNRGEC
97.6% | 89% | 113% | 100% | 103% | GpH7-A5/GpH7-B3 variant I332_16H/GpL16-k0 (antibody, human IgG1, kappa, He Ab: anti-glypican 3 IgG1 heterodimer, only the GpH7-B3 chain mutated; position in EU numbering; also called He Ab) heavy 1: not shown heavy 2: not shown light: DIVMTQSPLSLPVTPGEPASISCQASESLVHSNRNTYLHWYLQKPGQSPQLLIYKVSNRFSGVPDRFSGSGSGTDFTLKISRVEAEDVGVYYCSQNTHVPPTFGQGTKVEIERTVAAPSVFIFPPSDEQLKSGTASVVCLLNNFYPREAKVQWKVDNALQSGNSQESVTEQDSKDSTYSLSSTLTLSKADYEKHKVYACEVTHQGLSSPVTKSFNRGEC
113% | 213% | 112% | 109% | 158% | GpH7-A5/GpH7-B3 variant I332_10E/GpL16-k0 (antibody, human IgG1, kappa, He Ab: anti-glypican 3 IgG1 heterodimer, only the GpH7-B3 chain mutated; position in EU numbering; also called He Ab) heavy 1: not shown heavy 2: not shown light: DIVMTQSPLSLPVTPGEPASISCQASESLVHSNRNTYLHWYLQKPGQSPQLLIYKVSNRFSGVPDRFSGSGSGTDFTLKISRVEAEDVGVYYCSQNTHVPPTFGQGTKVEIERTVAAPSVFIFPPSDEQLKSGTASVVCLLNNFYPREAKVQWKVDNALQSGNSQESVTEQDSKDSTYSLSSTLTLSKADYEKHKVYACEVTHQGLSSPVTKSFNRGEC
97.9% | 95.6% | 113% | 97.3% | 109% | GpH7-A5/GpH7-B3 variant I332_13S/GpL16-k0 (antibody, human IgG1, kappa, He Ab: anti-glypican 3 IgG1 heterodimer, only the GpH7-B3 chain mutated; position in EU numbering; also called He Ab) heavy 1: not shown heavy 2: not shown light: DIVMTQSPLSLPVTPGEPASISCQASESLVHSNRNTYLHWYLQKPGQSPQLLIYKVSNRFSGVPDRFSGSGSGTDFTLKISRVEAEDVGVYYCSQNTHVPPTFGQGTKVEIERTVAAPSVFIFPPSDEQLKSGTASVVCLLNNFYPREAKVQWKVDNALQSGNSQESVTEQDSKDSTYSLSSTLTLSKADYEKHKVYACEVTHQGLSSPVTKSFNRGEC
118% | 117% | 103% | 106% | 141% | GpH7-A5/GpH7-B3 variant K326_05P/GpL16-k0 (antibody, human IgG1, kappa, He Ab: anti-glypican 3 IgG1 heterodimer, only the GpH7-B3 chain mutated; position in EU numbering; also called He Ab) heavy 1: not shown heavy 2: not shown light: DIVMTQSPLSLPVTPGEPASISCQASESLVHSNRNTYLHWYLQKPGQSPQLLIYKVSNRFSGVPDRFSGSGSGTDFTLKISRVEAEDVGVYYCSQNTHVPPTFGQGTKVEIERTVAAPSVFIFPPSDEQLKSGTASVVCLLNNFYPREAKVQWKVDNALQSGNSQESVTEQDSKDSTYSLSSTLTLSKADYEKHKVYACEVTHQGLSSPVTKSFNRGEC
95.1% | 101% | 112% | 103% | 104% | GpH7-A5/GpH7-B3 variant I332_19Q/GpL16-k0 (antibody, human IgG1, kappa, He Ab: anti-glypican 3 IgG1 heterodimer, only the GpH7-B3 chain mutated; position in EU numbering; also called He Ab) heavy 1: not shown heavy 2: not shown light: DIVMTQSPLSLPVTPGEPASISCQASESLVHSNRNTYLHWYLQKPGQSPQLLIYKVSNRFSGVPDRFSGSGSGTDFTLKISRVEAEDVGVYYCSQNTHVPPTFGQGTKVEIERTVAAPSVFIFPPSDEQLKSGTASVVCLLNNFYPREAKVQWKVDNALQSGNSQESVTEQDSKDSTYSLSSTLTLSKADYEKHKVYACEVTHQGLSSPVTKSFNRGEC
108% | 92.5% | 114% | 105% | 116% | GpH7-A5/GpH7-B3 variant I332_06M/GpL16-k0 (antibody, human IgG1, kappa, He Ab: anti-glypican 3 IgG1 heterodimer, only the GpH7-B3 chain mutated; position in EU numbering; also called He Ab) heavy 1: not shown heavy 2: not shown light: DIVMTQSPLSLPVTPGEPASISCQASESLVHSNRNTYLHWYLQKPGQSPQLLIYKVSNRFSGVPDRFSGSGSGTDFTLKISRVEAEDVGVYYCSQNTHVPPTFGQGTKVEIERTVAAPSVFIFPPSDEQLKSGTASVVCLLNNFYPREAKVQWKVDNALQSGNSQESVTEQDSKDSTYSLSSTLTLSKADYEKHKVYACEVTHQGLSSPVTKSFNRGEC
135% | 135% | 101% | 107% | 196% | GpH7-A5/GpH7-B3 variant K326_03V/GpL16-k0 (antibody, human IgG1, kappa, He Ab: anti-glypican 3 IgG1 heterodimer, only the GpH7-B3 chain mutated; position in EU numbering; also called He Ab) heavy 1: not shown heavy 2: not shown light: DIVMTQSPLSLPVTPGEPASISCQASESLVHSNRNTYLHWYLQKPGQSPQLLIYKVSNRFSGVPDRFSGSGSGTDFTLKISRVEAEDVGVYYCSQNTHVPPTFGQGTKVEIERTVAAPSVFIFPPSDEQLKSGTASVVCLLNNFYPREAKVQWKVDNALQSGNSQESVTEQDSKDSTYSLSSTLTLSKADYEKHKVYACEVTHQGLSSPVTKSFNRGEC
87% | 85.2% | 108% | 100% | 89.5% | GpH7-A5/GpH7-B3 variant I332_03V/GpL16-k0 (antibody, human IgG1, kappa, He Ab: anti-glypican 3 IgG1 heterodimer, only the GpH7-B3 chain mutated; position in EU numbering; also called He Ab) heavy 1: not shown heavy 2: not shown light: DIVMTQSPLSLPVTPGEPASISCQASESLVHSNRNTYLHWYLQKPGQSPQLLIYKVSNRFSGVPDRFSGSGSGTDFTLKISRVEAEDVGVYYCSQNTHVPPTFGQGTKVEIERTVAAPSVFIFPPSDEQLKSGTASVVCLLNNFYPREAKVQWKVDNALQSGNSQESVTEQDSKDSTYSLSSTLTLSKADYEKHKVYACEVTHQGLSSPVTKSFNRGEC
108% | 114% | 105% | 106% | 119% | GpH7-A5/GpH7-B3 variant K326_01G/GpL16-k0 (antibody, human IgG1, kappa, He Ab: anti-glypican 3 IgG1 heterodimer, only the GpH7-B3 chain mutated; position in EU numbering; also called He Ab) heavy 1: not shown heavy 2: not shown light: DIVMTQSPLSLPVTPGEPASISCQASESLVHSNRNTYLHWYLQKPGQSPQLLIYKVSNRFSGVPDRFSGSGSGTDFTLKISRVEAEDVGVYYCSQNTHVPPTFGQGTKVEIERTVAAPSVFIFPPSDEQLKSGTASVVCLLNNFYPREAKVQWKVDNALQSGNSQESVTEQDSKDSTYSLSSTLTLSKADYEKHKVYACEVTHQGLSSPVTKSFNRGEC
125% | 130% | 110% | 107% | 156% | GpH7-A5/GpH7-B3 variant K326_02A/GpL16-k0 (antibody, human IgG1, kappa, He Ab: anti-glypican 3 IgG1 heterodimer, only the GpH7-B3 chain mutated; position in EU numbering; also called He Ab) heavy 1: not shown heavy 2: not shown light: DIVMTQSPLSLPVTPGEPASISCQASESLVHSNRNTYLHWYLQKPGQSPQLLIYKVSNRFSGVPDRFSGSGSGTDFTLKISRVEAEDVGVYYCSQNTHVPPTFGQGTKVEIERTVAAPSVFIFPPSDEQLKSGTASVVCLLNNFYPREAKVQWKVDNALQSGNSQESVTEQDSKDSTYSLSSTLTLSKADYEKHKVYACEVTHQGLSSPVTKSFNRGEC
104% | 110% | 119% | 104% | 118% | GpH7-A5/GpH7-B3 variant I332_14T/GpL16-k0 (antibody, human IgG1, kappa, He Ab: anti-glypican 3 IgG1 heterodimer, only the GpH7-B3 chain mutated; position in EU numbering; also called He Ab) heavy 1: not shown heavy 2: not shown light: DIVMTQSPLSLPVTPGEPASISCQASESLVHSNRNTYLHWYLQKPGQSPQLLIYKVSNRFSGVPDRFSGSGSGTDFTLKISRVEAEDVGVYYCSQNTHVPPTFGQGTKVEIERTVAAPSVFIFPPSDEQLKSGTASVVCLLNNFYPREAKVQWKVDNALQSGNSQESVTEQDSKDSTYSLSSTLTLSKADYEKHKVYACEVTHQGLSSPVTKSFNRGEC

From patent US20260167699A1 (Chugai, published 2026)
